From patent US7157092B1, “Acyl pseudodipeptides, preparation method and pharmaceutical compositions containing same” (Om Pharma, priority 1998, dated 2007)

System: ovalbumin
Test: Subcutaneous immunization with ovalbumin antigen: specific serum immunoglobulins (ELISA)
Type: in vivo, BALB/c mice
Conditions: s.c. injections days 0 and 14, ovalbumin 50 μg, adjuvant 50 μg per injection, ± SD
Experimental: To this end, 50 BALB/c mice (females, aged 8 weeks at the beginning of treatment) were divided into 5 groups as follows:
Antigen: An ovalbumin stock solution is prepared at a concentration of 0.5 mg/ml in 0.9% NaCl.
The negative control consists of a 0.9% NaCl solution without antigen.
Antigen-Adjuvant mixture: Adjuvants are allowed to stand for 20 minutes at 37° C. before vortex treatment for 3 minutes. Then the antigen and (0.9%) NaCl are added as specified in the above Table, and the antigen/adjuvant mixture is vortexed briefly before placing it on a rotary stirrer for 15 minutes at room temperature, then the whole mixture is vortexed for 3 minutes.
Immunization regimen: Injections are scheduelled on days 0 and 14. The mixtures stated in the preceeding table are administered by subcutaeous route (75 μl on the side, 150 μl in total per animal). Blood sampling is scheduelled on days 14 and 28 (orbital puncture).
Assay for anti-ovalbumin immunoglobulins: The following serum Immunolglobulins which are specifically directed against ovalbumin are assayed in duplicate by ELISA: IgG1, IgG2a, and IgM. Briefly stated, microtiter plates (NUNC Immunoplate, Roskilde, DK) are incubated (overnight coating) at 40C together with 100 μl ovalbumin (0.5 μg) in bicarbonate buffer pH 9.6). After washing with 0.5% Tween-20 (Merck Hohenbrunn, D), sera are diluted 50-, 200- and 800-fold (diluting solution: phosphate buffered saline (PBS)+1% bovine serum albumin (BSA, Sigma, St. Louis, Mo., USA)+0.02% Tween-20)). 100 μl of each dilute serum sample are added to the wells. Incubation lasts 45 minutes at 37° C.
After a second washing step, IgG1, IgG2a and IgM specifically directed to ovalbumin are incubated for 30 minutes at 37° C. together with 100 μl of anti-IgG1 antibodies (anti-mouse rat antibody)-peroxydase conjugate (Serotec, Oxford, UK), IgG2a-peroxydase conjugate (Pharmingen, San Diego, Calif., USA) and IgM-biotin conjugate (Pharmingen, San Diego, Calif., USA), diluted beforehand in PBS/BSA/Tween buffer (250-, 1000-, 500-fold dilutions, respectively). For IgM, after an extra washing step, a 3rd incubation step is required (30 min. at 37° C.) with a 1:100 dilute solution of streptavidin-peroxydase conjugate (Dako, Glostrup, DK).
After the washing step, 100 μl of a phenylene 1,2-diamine solution (OPD, Merck, Darmstadt, GFR) are added to detect peroxydase-coupled anti-IgG1 and anti-IgG2 secondary antibodies (whereas for IgM, the reagent being used is 3′, 3′, 5′,5′-tetramethylbenzidine (TMB, Sigma, St. Louis, Mo., USA). After a 20 minute incubation period at room temperature, the reaction is stopped by adding 100 μl of 2N H2SO4. Absorbance values are read at 490 nm with a Bio-Rad 3550 model plate reader
Results of each reading at 490 nm are given in arbitrary units (A.U.) per ml. This is achieved by comparing each sample with a standard prepared from different dilutions of a sample pool collected from group B at day 28 (animals injected with ovalbumin alone). As clearly understood by this term, the sample pool diluted 50-fold is at a concentration of 1000 A.U./ml. Individual results are then corrected for the corresponding dilution factor (50, 200, or 800 times). Only the mean values of each group and the standard deviation (SD) are herein reported.

B1: ova: ovalbumin antigen (Fluka Chemie), injected alone (protein, UniProt P01012 2-386, looked up)
Ovalbumin: GSIGAASMEFCFDVFKELKVHHANENIFYCPIAIMSALAMVYLGAKDSTRTQINKVVRFDKLPGFGDSIEAQCGTSVNVHSSLRDILNQITKPNDVYSFSLASRLYAEERYPILPEYLQCVKELYRGGLEPINFQTAADQARELINSWVESQTNGIIRNVLQPSSVDSQTAMVLVNAIVFKGLWEKAFKDEDTQAMPFRVTEQESKPVQMMYQIGLFRVASMASEKMKILELPFASGTMSMLVLLPDEVSGLEQLESIINFEKLTEWTSSNVMEERKIKVYLPRMKMEEKYNLTSVLMAMGITDVFSSSANLSGISSAESLKISQAVHAAHAEINEAGREVVGSAEAGVDAASVSEEFRADHPFLFCIKHIATNAVLFFGRCVSP
Immunoglobulins specifically raised against ovalbumin of IgG1 subclass (Day 14): 728 ± 589 Arbitrary units/ml | Immunoglobulins specifically raised against ovalbumin of IgG2a subclass (Day 14): 5201 ± 1880 Arbitrary units/ml | Immunoglobulins specifically raised against ovalbumin of IgM subclass (Day 14): 19423 ± 13778 Arbitrary units/ml | Immunoglobulins specifically raised against ovalbumin of IgG1 subclass (Day 28): 47743 ± 46294 Arbitrary units/ml | Immunoglobulins specifically raised against ovalbumin of IgG2a subclass (Day 28): 73162 ± 107954 Arbitrary units/ml | Immunoglobulins specifically raised against ovalbumin of IgM subclass (Day 28): 47998 ± 34035 Arbitrary units/ml
